Results as given in the Human Domainome abundance scans (Beltran et al. 2025).

B1: Ankyrin repeat and SAM domain-containing protein 6, residues 774 to 836; numbered along this chain, Q68DC2 (parent)
chain: DEDELTGILKKLSLEKYQPIFEEQEVDMEAFLTLTDGDLKELGIKTDGSRQQILAAISELNAG
B2: Mineralocorticoid receptor, residues 600 to 675; numbered along this chain, P08235 (parent)
chain: SKICLVCGDEASGCHYGVVTCGSCKVFFKRAVEGQHNYLCAGRNDCIIDKIRRKNCPACRLQKCLQAGMNLGARKS

Variants of: B1
Experiment: abundance fitness (aPCA) (normalised: wild type 0, dead -1); higher = more abundant; growth selection in yeast, the domain comes from the species named
Details: Homo sapiens

Abundance fitness, by site and new letter:
E2: F 0.287; L 0.288; C 0.142; M 0.565; A -0.029; H 0.248; G -0.158
D1: S 0.045; Q 0.002; F -0.312; L 0.223; A -0.023; E -0.103; G -0.039; T 0.007; N 0.113; W -0.363; Y 0.031; M 0.351; I 0.158

Variants of: B2
Experiment: as above
Details: Homo sapiens

Abundance fitness of substitutions, site by site:
L65: Y -0.001; M -0.052; E 0.031; D -0.051; T -0.037; R -0.055; W -0.035; K -0.107; G -0.051; V -0.087; H 0.032; A -0.05; Q 0.018; F -0.01; N -0.058
A67: R -0.053; F -0.121; M 0.055; D -0.653; Q -0.17; N -0.084; L -0.002; G -0.076; H -0.026; Y -0.264; C -0.03; K -0.144; W -0.055; I -0.076; E 0.092
M69: G -0.235; T -0.353; H -0.617; D -0.293; R -0.421; K -0.261; Y -0.493; F -0.239; S -0.341; E -0.307; Q -0.262; N -0.523; W -0.427; A -0.058; C -0.128
L61: E -0.214; T -0.361; W -0.004; R -0.205; G -0.566; N -0.338; S -0.471; K 0.021; A -0.315; V -0.101; Q -0.005; D -0.774; F -0.031; I -0.155; C -0.843; H -0.233; Y 0.04
Q66: H -0.045; M -0.065; Y -0.094; I -0.029; A 0.011; G -0.044; P -0.697; T -0.051; L -0.112; D 0.018; W -0.029; F -0.019; C -0.023; V -0.039; E 0.081; R -0.014
A58: P -0.117; F -0.082; E -0.12; R -0.033; G -0.051; C 0.05; K -0.044; M -0.141; L -0.175; Q 0.035; V -0.446; N -0.03; I -0.827; W -0.102; S 0.012; D -0.085
N55: W -0.085; Y -0.155; E -0.082; A -0.064; F -0.093; M -0.096; H -0.038; I 0.009; P -0.144; D 0.017; Q 0.013; T 0.015; S -0.051; C -0.032; L -0.021; R -0.015
S76: I -0.198; L -0.012; F -0.119; W 0.122; E -0.044; M -0.084; K -0.654; N -0.071; V -0.173; Q -0.096; Y -0.075; G -0.076; H -0.051; R -0.116; D -0.031; P 0.007; T 0.01; C -0.128
K75: V 0.034; L -0.056; W -0.007; C -0.038; F -0.167; H 0.077; M -0.025; G -0.024; P 0.011; Q 0.05; E 0.055; Y -0.051; I -0.213; T 0.014; D -0.057; A 0.059; S 0.065; N -0.092
R74: V 0.026; S -0.001; A 0.027; E 0.056; Y -0.031; C 0.005; G -0.022; K 0.02; D -0.003; M -0.015; T 0.138; Q -0.079; W 0; I -0.042; N -0.011; F -0.088; P -0.03; L -0.061
G68: P -0.451; T -0.423; M -0.211; W -0.447; Q -0.153; R -0.172; S -0.222; D -0.164; F -0.77; K -0.217; A -0.382; I -0.266; E -0.146; N -0.152; V -0.518; L -0.484; H -0.381
K63: E -0.16; S -0.104; W -0.204; G -0.104; H -0.099; R -0.082; A -0.075; F -0.192; D -0.318; Q -0.134; L -0.092; N -0.058; T -0.024; M -0.074; I -0.101; Y -0.137; P -0.754
G72: F -0.134; E -0.036; W -0.124; K -0.048; P 0.011; V 0.012; I -0.02; T -0.115; R -0.065; Y -0.074; C 0; D 0.029; L -0.021; S -0.009; M -0.042; Q 0.053; H 0.032
K54: R -0.083; V -0.065; Q -0.071; P -0.072; Y -0.032; T 0.038; L -0.106; S 0.013; N 0.013; W -0.194
C56: Y -0.562; R -0.358
P57: L -0.142; C -0.042; Q -0.09; H -0.002; S -0.051; W -0.027; V -0.135; G -0.062; N -0.018; D 0.061; F -0.016; A -0.04; T -0.082; R -0.115; I -0.168; K 0.006; E -0.048
C64: E -0.851; D -0.716; K -0.885; H -0.821; G -0.02; M -0.017; I -0.415; Q -0.315; S -0.113; A -0.028; P -0.869; L -0.351; Y -0.452; V -0.587; N -0.886; W -0.523; T -0.35; F -0.466
C59: T -0.654; K -0.972; N -0.711; H -0.449; S -0.762; F -0.788; Y -0.995; I -0.955; W -0.855; D -0.626; P -0.615; M -0.913; E -0.955; R -0.801; L -0.658; G -0.917; Q -0.957
N70: L -0.089; S 0.034; Y -0.009; D 0.014; W -0.087; F -0.07; I -0.02; M -0.044; Q -0.019; T -0.04; C -0.154; R -0.014; P -0.021; V -0.011; G -0.082; H -0.031; E -0.035; K 0.058
Q62: Y -0.121; R -0.045; A -0.013; E -0.054; C -0.002; V -0.022; F -0.16; H 0.006; K 0.046; T -0.052; N 0.033; G -0.028; M 0.026; W -0.059; S -0.049; L 0.012; P -0.887
